The results in this text go back to patent US20070072210.

The data set has as its system T1, His-tagged full length BAAT1 (baculovirus, produced in Sf9 cells).
T1 sequence: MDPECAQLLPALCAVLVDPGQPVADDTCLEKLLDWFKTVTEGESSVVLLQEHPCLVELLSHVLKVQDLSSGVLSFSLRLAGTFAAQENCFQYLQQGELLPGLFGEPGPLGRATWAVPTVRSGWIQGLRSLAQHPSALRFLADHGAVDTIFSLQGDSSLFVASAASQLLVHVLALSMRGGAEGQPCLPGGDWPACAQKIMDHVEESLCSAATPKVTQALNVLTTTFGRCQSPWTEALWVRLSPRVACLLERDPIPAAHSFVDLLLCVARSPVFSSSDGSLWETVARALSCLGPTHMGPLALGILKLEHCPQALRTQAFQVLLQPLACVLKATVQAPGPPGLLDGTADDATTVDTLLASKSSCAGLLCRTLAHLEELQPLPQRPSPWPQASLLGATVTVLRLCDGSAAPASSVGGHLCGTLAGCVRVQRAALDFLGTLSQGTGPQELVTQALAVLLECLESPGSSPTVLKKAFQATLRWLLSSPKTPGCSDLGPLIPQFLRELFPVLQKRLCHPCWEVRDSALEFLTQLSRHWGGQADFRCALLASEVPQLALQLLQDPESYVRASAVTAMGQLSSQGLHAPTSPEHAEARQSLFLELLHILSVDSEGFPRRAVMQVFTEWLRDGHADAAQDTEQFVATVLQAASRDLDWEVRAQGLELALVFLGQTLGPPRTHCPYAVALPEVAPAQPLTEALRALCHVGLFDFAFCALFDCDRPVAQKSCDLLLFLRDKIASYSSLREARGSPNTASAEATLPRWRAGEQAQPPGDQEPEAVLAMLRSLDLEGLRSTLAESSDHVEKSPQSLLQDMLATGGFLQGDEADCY

As for “ataxia telangiectasia mutated (endogenous, from human cell lysates)”, the “in vitro PP2A phosphatase assay on immunoprecipitated ATM, Ser1981 phosphorylation by immunoblot” value is “dephosphorylation of ATM Ser1981 was partially blocked in the presence of full length, baculovirus produced BAAT1”.
